Assay [1] has as its target human CCR8 (human) (UniProt P51685). Description: flow cytometry on mammalian cells expressing human CCR8. For orientation: In flow cytometry, cells or beads pass a laser one at a time.
The target is the same in assay [2]. Description: cell-based or functional assay.

human CCR8 (human), sequence (P51685 whole entry): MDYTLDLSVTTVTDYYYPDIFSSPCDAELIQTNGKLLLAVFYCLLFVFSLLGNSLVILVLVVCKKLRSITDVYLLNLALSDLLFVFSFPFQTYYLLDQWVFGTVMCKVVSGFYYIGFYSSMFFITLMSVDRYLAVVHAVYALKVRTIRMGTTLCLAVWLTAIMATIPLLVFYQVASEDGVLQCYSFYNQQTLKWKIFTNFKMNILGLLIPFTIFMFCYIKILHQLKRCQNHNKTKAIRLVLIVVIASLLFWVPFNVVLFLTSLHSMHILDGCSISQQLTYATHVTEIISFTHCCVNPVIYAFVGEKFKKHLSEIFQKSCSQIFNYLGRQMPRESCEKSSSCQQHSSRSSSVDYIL

On to “ADI-26140: Human IgG1 isotype control (antibody)”, for which the MFI Fold over Background (fold over background) in assay [1] came out at 2.
In assay [2], “MC148R = virokine from Molluscum contagiosum virus subtype 2 (MOCV) (ligand)” registered an IC50 antagonism of EC80 Human CCL1 Gα15/16 Biosensor of 33.5 nM and an IC50 antagonism of EC80 Human CCL1 Gαz Biosensor of 13.8 nM.
In assay [1], “CTL-33364 = Biolegend human CCR8 control IgG clone L263G8 (antibody)” yielded an MFI Fold over Background (fold over background) of 268. In assay [2], this substance registered an IC50 antagonism of EC80 Human CCL1 Gα15/16 Biosensor of 1.62 nM and an IC50 antagonism of EC80 Human CCL1 Gαz Biosensor of 0.798 nM.

Source of the values: patent publication US20250019449A1.
